Earlier results as cited in US20240209047A1, “GROWTH FACTOR CONJUGATES” (priority 2021, published 2024).

Test system: non-healing diabetic ulcers
Settings: treated for 20 weeks or until complete wound closure; placebo 25%

B1: PDGF: topical gel containing recombinant human PDGF-BB (Regranex®) (protein, UniProt P01127 82-190, looked up)
Platelet-derived growth …: SLGSLTIAEPAMIAECKTRTEVFEISRRLIDRTNANFLVWPPCVEVQRCSGCCNNRNVQCRPTQVQLRPVQVRKIEIVRKKPIFKKATVTLEDHLACKCETVAAARPVT
modifications: Platelet-derived growth factor subunit B topical gel (becaplermin)
- patients healed: 48%
